Laboratory results as given in patent publication US20260034194A1, “PHARMACEUTICAL COMPOSITIONS AND METHODS OF TREATING PSP” (priority 2022, published 2026).
Substitutions are numbered along the chain they refer to. Names may count otherwise. “Also recorded” adds a separate entry of the source.

B1: I782F: RcSxph STX binding pocket mutant I782F (protein)
chain: MAPTFQTALFFTIISLSFAAPNAKQVRWCAISDLEQKKCNDLVGSCNVPDITLVCVLRSSTEDCMTAIKDGQADAMFLDSGEVYEASKDPYNLKPIIAEPYSSNRDLQKCLKERQQALAKKMIGHYIPQCDEKGNYQPQQCHGSTGHCWCVNAMGEKISGTNTPPGQTRATCERHELPKCLKERQVALGGDEKVLGRFVPQCDEKGNYEPQQFHGSTGYSWCVNAIGEEIAGTKTPPGKIPATCQKHDLVTTCHYAVAMVKKSSAFQFNQLKGKRSCHSGVSKTDGWKALVTVLVEKKLLSWDGPAKESIQRAMSKFFSVSCIPGATQTNLCKQCKGEEGKNCKNSHDEPYYGNYGAFRCLKEDMGDVAFLRSTALSDEHSEVYELLCPDNTRKPLNKYKECNLGTVPAGTVVTRKISDKTEDINNFLMEAQKRQCKLFSSAHGKDLMFDDSTLQLALLSSEVDAFLYLGVKLFHAMKALTGDAHLPSKNKVRWCTINKLEKMKCDDWSAVSGGAIACTEASCPKGCVKQILKGEADAVKLEVQYMYEALMCGLLPAVEEYHNKDDFGPCKTPGSPYTDFGTLRAVALVKKSNKDINWNNIKGKKSCHTGVGDIAGWVIPVSLIRRQNDNSDIDSFFGESCAPGSDTKSNLCKLCIGDPKNSAANTKCSLSDKEAYYGNQGAFRCLVEKGDVAFVPHTVVFENTDGKNPAVWAKNLKSEDFELLCLDGSRAPVSNYKSCKLSGIPPPAIVTREESISDVVRIVANQQSLYGRKGFEKDMFQLFSSNKGNNLLFNDNTQCLFTFDRQPKDIMEDYFGKPYYTTVYGASRSAMSSELISACTIKHC
B2: I782A/Y558A: RcSxph STX binding pocket double mutant I782A/Y558A (protein)
chain: B1 chain with Y577A, F801A
B3: MaSxph: Mantella aurantiaca (Golden mantella) saxiphilin, SEQ ID NO: 3 (protein, listed as Mantella aurantiaca)
chain: MALTFQTALYFTIIGLSFVTSSARDVRWCVISDLEQKKCNDLVGSCKVSGITLVCVHRSSTENCMTAIRDEQADAMFLDSGDVYKASMSPYNLKPIIAESYSSHKECLKKRQEALGGANVLGQFVPQCDEKGSYQPQQCYGSTGHCWCVNAIGEEIVGTKTQPGQTQATCERHDQTKCLKDRQKALAKKMIGGFVPQCDEKGNFKPRQCHGSTGYCWCTNANGEKIAATNTPPQQSPPTCERHDLDSCHYAVAVVKKSSIFQFNQLKGKRSCHSGVSKTDGWKAPVSVLVDKNLLSWDRAAKESIEKAVSKFFSDSCIPGATETNLCNQCMGEGGKKCMSSHDEPYYGDHGAFRCLKEDKGDVAFLKNTVLSDTHSEDYELLCPDNTRKPLNKYKECNLGKVPADAVVTRKSGDKIKDINDFLLEAQKKHCQLFSSAHGKDLMFDDSTTQLSLLPPEVDVFFFLGVQWLNTMKTLTADVKPPSKNKVRWCTVNNLEKMKCDDWSAVSGGAIECTEASSPEHCIKQIVKGEADAVTLDVQYMYEALKCGLLPAVEEYHNKDDFGPCKTPGSEIKDFGAKRAVALVKKSNKDINWHNLKGKKSCHTGVGDQAGWIIPVGLISRQIDNCNIDSFFSESCAPGSDTTSNFCKLCIGDPSNPMANTKCSLSDKEAYHGNEGAIRCLVEKGDVAFVHHTAVFENTDGKNPAEWAANLKSEDFEILCLDGSRAPVSNYMTCRLSGVPPRAIVTREESVSDVVRILINQQSLFGRNGFEKDMFQMFSSNKGQNLLFNDGTQCLIEFDRQPRGIMEDYFGKPYYNAVYNTSKCVLPSELTSACTFKHC
B4: RiSxph: Ranitomeya imitator (Mimic poison frog) saxiphilin, SEQ ID NO: 6 (protein)
chain: MRRSSYAASQEMRMTLRVLLCLCLWALSSAAPNTRNVRWCVTSDTEEQKCNDLVTSCHVDEILLICVKKSSTEDCVRAISNGEADAISLDSKDVYKASLDPFNLKPIMTEAYSESEHTPCMRHRQSVLGGKIMKIGAFVPKCDEKGNYVPKQCHGSTGYCWCLNENGEEIEGTRTPPGNPGLTCENKANKPPCLKERQKLLSAKPSPAVFVPECDEKGNYRPQQSHVYSWCVDEYGEEVFGSRSFPGKPPKPCEASGETPCIKERNKVLSAAEPLLGAFVPDCDEKGYFSPLQSHGSTGYSWCVTKNGDEIKGTRTGPGQSPPTCEVPAPVTLHYAVAVVKKSSSFHLDQLKGKRSCHSAVGEAAGWVAPLNVLLKKKLLLWEEPEPKTIEKVASEIFSASCAPGAQEANLCEQCAGQEDKCTRGPGEPYYGDEGAFRCLREDKGDVAFVEDTALTGQYSDNFELLCPDNTRRPLSQYKICNFGRIPRHAVVTRSSGDKMKDITEYLLQAQKKECKLFSSTHGKDLLFEDTTSALIALPSAMDTFLFLGPDLFNGMKTLNGARPPQVNQQIRWCPQSKNEKKKCDDWSSVSGGAIKCTEPSSGLECIKMILKGEAEAVNLDIEHSYIALKCGLLPSVDEYRNKDDLIPCQIPGSEYSEFGSYRIVALVKKTDKDLTWNNLQGKKSCHTRAGDMIGWNIPVYLISKKTKNCDLGSYFSQSCAPGSPIDSNLCKLCIGDPQNPQANTKCSISDKEAYYGHEGAIRCLVEKGDVAFVPHTAIFENTDGKNPALWAKDLKSTDFELLCPDGSRAPVNDYKKCKLSGIANQIAITRPESVKDVVRIIQNQQSLYGRTGSQKDIFQMFSSSYGQNLLFSDRTQCLVEFDRMLDRDIMDDYFGKPFHKHLLRDNDCLPKSALASACSFHH
modifications: Ranitomeya imitator
B5: K789A: RcSxph STX binding pocket mutant K789A (protein)
chain: B1 chain with F801I, K808A
B6: T563A: RcSxph STX binding pocket mutant T563A (protein)
chain: B1 chain with T582A, F801I
B7: Y795A: RcSxph STX binding pocket mutant Y795A (protein)
chain: B1 chain with F801I, Y814A
B8: Q787A: RcSxph STX binding pocket mutant Q787A (protein)
chain: B1 chain with F801I, Q806A
B9: OsSxph: Oophaga sylvatica (Little devil poison frog) saxiphilin, SEQ ID NO: 5 (protein, listed as Oophaga sylvatica)
chain: MRMTLQVLLCLCLLVLSSAAPNSRNVRWCVTSDTEEQKCNDLVTSCHVDEILLICVKKSSKEDCVRAISNGEADAISLDSKDVYKASLDPFNLKPIMTEAYSESEQTPCMRHRQSVLGGKKMIIGAFVPKCDEKGNYVPKQCHDSTGFCWCLNENGEEIEGTRTPPGNSGLTCENKANKPPCLKERQKLLSAKPSPAVFVPECDEKGNYRPEQSHVYSWCVDEYGEEVLGSRTFPGKPPKPCEASGETPCIKERNKVLSAAEPLPGAFVPDCDEKGYFSPLQFHGSTGHSWCVTKNGEEIKGTRTRPGQTPPTCDVPAPATLHYAVAVVKKSSSFQLDQLKGKRSCHSAVGEAAGWVAPLNVLLKKKFLLWEEPEQKSTEKVASEIFSASCAAGAQEANLCEQCAGQEDKCTRGPGEPYYGDEGAIRCLRDDKGDVAFVEDTALTGQYSDNFELLCPDNTRRPLSQYKICNFGSVPRHAVVTRSTGDKMKEITEYLLQAQKKECKLFSSTHGKDLLFEDTTSALIALPSGMDTFLFLGPDLFNGMKTLNGAHPPRVKQKIRWCPQNKNEKKKCDDWSSVSGGSIKCTEPSSALECIKMILKDEADAVNLDAEHAYTALKCGLLPSLEEYRNKDDLIVCQIPGAEYSEFGSYRIVALVKKTDKDITWNNLQGKKSCHTHVGDMIGWNIPVYLISKKTKNCDLGSYFSQSCAPGSPIDSNLCKLCIGDPQNTEANTKCSLSDKEAYYGNEGAVRCLVETGDVAFVPHTAVFENTDGKNPALWAKDLKSTDFELLCPDGSRAPVSDYKKCKLSGIANHVTVTRPESVKDVVRITQNQESLYGRTGSQKDIFQMFSSSYGQNLLFNDRTQCLFEFDRMLDRDIMDDYLGKPFHKHLMSDNDCLPKSALATACSFHH

Assay type: binding
Conditions: for Kd / STX/F-STX affinity compared with RcSxph: FP; for Kd: 1 nM F-STX, 25° C., errors S.D.; for ΔΔG: ΔΔG = RT ln(Kd mutant or XSxph/Kd RcSxph), T = 298K, FP with F-STX

Molecule	Kd	ΔΔG	STX/F-STX affinity compared with RcSxph
B1	16.1 ± 4.1 nM	0.46 kcal/mol	–
B2	1.2 ± 0.2 nM	-1.07 kcal/mol	–
B3	0.4 ± 0.1 nM	-1.73 kcal/mol	enhanced affinity
B4	0.8 ± 0.3 nM	-1.32 kcal/mol	higher affinity for STX than RcSxph; also recorded: binds STX more strongly than RcSxph
B5	5.1 ± 1.7 nM	-0.22 kcal/mol	–
B6	5.3 ± 0.5 nM	-0.20 kcal/mol	–
B7	8.4 ± 2.1 nM	0.08 kcal/mol	–
B8	11.3 ± 1.1 nM	0.25 kcal/mol	–
B9	0.8 ± 0.5 nM	-1.32 kcal/mol	–
